Assay [1] has as its target T1, 人CLDN18.2 (human, UniProt P56856-2 1-261, limits assumed).
T1 construct: The construct and its source are not described; P56856 is the CLDN18 entry; CLDN18.2 is its isoform 2 (A2)
T1 sequence (looked up): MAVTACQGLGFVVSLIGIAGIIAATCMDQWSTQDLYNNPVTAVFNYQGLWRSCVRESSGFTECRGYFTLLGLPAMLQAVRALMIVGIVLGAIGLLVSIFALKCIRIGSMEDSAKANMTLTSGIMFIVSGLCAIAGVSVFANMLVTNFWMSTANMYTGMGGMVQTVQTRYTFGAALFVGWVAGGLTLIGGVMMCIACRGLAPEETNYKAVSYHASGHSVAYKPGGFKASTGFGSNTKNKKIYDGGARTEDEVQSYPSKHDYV
Nature of the assay: BLI. On the technique in general: BLI is a label-free optical method that tracks binding on a fibre tip over time.

The target in assay [2] is T2, 人CD47 (human, UniProt Q08722 19-139, limits assumed).
T2 construct: The construct is not described
The experiment in a line: BLI.

Assay [3] has as its target T1, 人CLDN18.2. Nature of the assay: ELISA. (In general: In an ELISA, binding on a coated surface is turned into a signal by an enzyme label.)
Assay [4] has as its target T2, 人CD47. The experiment in a line: ELISA.
For assay [5], the target named is T2, 人CD47. Nature of the assay: ELISA competition, blocking of CD47 binding to SIRPα.

The results in this text go back to patent CN117192118A (DRAGONBOAT BIOPHARMACEUTICAL SHANGHAI CO LTD, dated 2023).

As a reminder, the Kd is the free concentration of one partner at which half of the binding sites on the other are occupied at equilibrium, for simple one-to-one binding. A higher Kd goes with a looser complex. As usually defined, the EC50 is the concentration at which the effect is half-maximal. Lower therefore signals an effect from little substance. One may read the IC50 as the point on the concentration scale where inhibition reaches its midpoint. Lower therefore signals greater potency.

T2 sequence (Q08722 19-139 limits assumed): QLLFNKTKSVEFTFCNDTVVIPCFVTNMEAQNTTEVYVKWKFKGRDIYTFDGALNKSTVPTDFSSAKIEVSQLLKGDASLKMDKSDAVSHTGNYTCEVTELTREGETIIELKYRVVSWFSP

B1: 抗CD47-CLDN18.2双特异性抗体双抗A (bispecific antibody, human IgG1, kappa)
heavy: not shown
light: DIQMTQSPSSLSASVGDRVTITCRASQDISNHLNWYQQKPGKAPKLLIYYTSRIHSGVPSSFRGSGSGTDYTLTISSLQPEDIATYFCQQGYTLPFTFGSGTKLEIKRTVAAPSVFIFPPSDEQLKSGTASVVCLLNNFYPREAKVQWKVDNALQSGNSQESVTEQDSKDSTYSLSSTLTLSKADYEKHKVYACEVTHQGLSSPVTKSFNRGEC
notes: The short chain is the A7H3L3 kappa light chain; Expressed in CHO-K1; also called 本发明抗体
Regarding B1, the Kd in assay [1] is 1.87 nM; in assay [2], 21.8 nM. Besides, the EC50 in assay [3] amounted to 0.121 µg/mL; in assay [4], 0.0462 µg/mL. Besides, the IC50 in assay [5] came out at 2.2 µg/mL.
